According to patent publication US20230365653A1 (MABWELL SHANGHAI BIOSCIENCE, published 2023):

T1: human TGF-β 2 (Cat: CJ79, Novoprotein Scientific Inc.) (human) (UniProt P61812)
T1 sequence (looked up): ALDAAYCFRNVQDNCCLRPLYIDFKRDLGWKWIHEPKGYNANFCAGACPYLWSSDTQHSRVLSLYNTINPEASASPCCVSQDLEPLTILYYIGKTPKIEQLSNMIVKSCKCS

T2: human TGF-β 3 (Cat: CJ44, Novoprotein Scientific Inc.) (human) (UniProt P10600)
T2 sequence (looked up): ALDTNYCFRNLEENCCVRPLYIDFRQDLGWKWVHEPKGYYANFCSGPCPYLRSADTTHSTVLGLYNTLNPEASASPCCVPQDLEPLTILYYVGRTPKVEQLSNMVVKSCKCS

B1: PD-L1 antibody H182-MUT4 (antibody, human IgG1, kappa, V domains shown)
VH: EVQLVQSGAEVKKPGATVKISCKVSGFNIKDIYMHWVQQAPGKGLEWMGRIDPANANTKYDPKFQDRVTITADTSTNTAYMELSSLRSEDTAVYYCASGQLGPLGFDYWGQGTTVTVSS
VL: DIQMTQSPSSLSASVGDRVTITCRASQDISNYLNWYQQKPGKAPKLLLYYTSRLHSGVPSRFSGSGSGTDYTLTISSLQPEDFATYFCQQGAGRPYTFGGGTKVEIKR
notes: 25-30 for the anti-human PD-L1 antibody without naming H182-MUT4; also called MW22

Columns and labels:
[1] = target: recombinant human TGF-β 1 protein (Cat: CA59, Novoprotein Scientific Inc.) (human) (UniProt P01137); assay: BLI (Octet QKe), binder captured on AHC biosensor, 1:1 fit
[2] = target: T1, human TGF-β 2 (Cat: CJ79, Novoprotein Scientific Inc.) (human); assay: ELISA, target coated at 1 µg/ml, HRP-anti-human Fc detection
[3] = target: T2, human TGF-β 3 (Cat: CJ44, Novoprotein Scientific Inc.) (human); assay: as above
[4] = target: recombinant human TGF-β 1 protein (Cat: CA59, Novoprotein Scientific Inc.) (human) (UniProt P01137); assay: as above
[5] = target: T3, recombinant human PD-L1-his protein (Accession No.: NP_054862.1, 19 aa-238 aa) (human, UniProt Q9NZQ7 19-238); assay: BLI (Octet QKe), binder captured on AHC biosensor, analyte 60 nM, 1:1 fit
T3 construct: range 19-238; also called recombinant human PD-L1 extracellular domain protein; not shown: his tag
Description: Antibody affinity was detected by an assay including capturing antibody Fc fragment with anti-human IgG Fc capture (AHC) biosensors on Octet QKe system instrument from Fortebio. […] The binding time was 300 s and the dissociation time was 300 s.

recombinant human TGF-β 1 protein (Cat: CA59, Novoprotein Scientific Inc.) (human), sequence (P01137 279-390 limits assumed): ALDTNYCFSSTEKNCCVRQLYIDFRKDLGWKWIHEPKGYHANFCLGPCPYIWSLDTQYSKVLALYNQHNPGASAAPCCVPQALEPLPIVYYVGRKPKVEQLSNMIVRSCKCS
T3 sequence (Q9NZQ7 19-238 limits assumed): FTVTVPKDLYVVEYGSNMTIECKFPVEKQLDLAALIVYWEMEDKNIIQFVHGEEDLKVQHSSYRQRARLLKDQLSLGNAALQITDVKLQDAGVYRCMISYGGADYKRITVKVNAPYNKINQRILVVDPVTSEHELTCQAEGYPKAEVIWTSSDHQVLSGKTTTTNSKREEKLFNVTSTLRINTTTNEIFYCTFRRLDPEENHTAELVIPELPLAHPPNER

Row | Molecule | Kd [1] | EC50 [2] | EC50 [3] | EC50 [4] | Kd [5]
1 | recombinant protein M7824 (anti-human PD-L1 antibody/TGF-β RII fusion protein control) | 2.81 nM | 18.2 nM | 0.981 nM | 0.472 nM | –
2 | B1 | – | – | – | – | 0.433 nM
